We go through 1 substance from paper PMC12325954.

The target of the assay is A. franciscana ATP synthase c-subunit (c8-ring) (A. franciscana (endogenous in A. franciscana mitochondria)). Briefly: cryo-EM structure; single-particle cryo-EM of the ATP synthase monomer purified from A. franciscana mitochondria in DDM at pH 7.0; rotational states 1, 2 and 3a; local refinement of F1 and FO.

What is called stoichiometry N is a count of units in the complex or per binding partner. For “A. franciscana ATP synthase c-subunit (c8-ring) (natural protein)”, the stoichiometry N was determined as 8.
